Here are results for 1 molecule from PMC10602183 (2023).

What all share (experiment): SPR
The target of experiment [1] is T1, Bal gp120 (HIV-1 clade B isolate Bal).
For experiment [2], the target named is T1, Bal gp120. This is another data set of the same source.
In experiment [3] the target is wild type gp120 Env protein AE (HIV-1 clade E isolate 93TH976.17).
Experiment [4] addresses autologous gp120 antigen Czm (HIV-1 clade C isolate 96ZM652).
In experiment [5] the target is autologous gp120 antigen B (HIV-1 clade B isolate 92US715.6).
The target in experiment [6] is autologous gp120 antigen A2 (HIV-1 clade A isolate 92UG037.8).

B1: HmAb64 (antibody, V domains shown)
VH: QVQLVQSGAEVKKPGASVKVSCKASGYTFTSYDITWVRQAPGQGLEWMGWISAYNGDTNYAQRLQGRVTMTTDTSTSTAYMELRSLRSDDTAVYYCARAKHTVLVTAMRWFDPWGQGTLVTVSS
VL: DIQMTQSPSSLSASVGDRVTITCRASQSISNYLNWYQQKPGKAPKLLISATSSLQSGVPSRFSGSGSGTDFTLTISSLQPDDFATYYCQQSYSTPWTFGQGTKLEIK
In the case of B1, the koff is 0.000459 s⁻¹ with Bal gp120 [1]; 0.000423 s⁻¹ in experiment [3]; 0.000454 s⁻¹ in experiment [4]; 0.000684 s⁻¹ in experiment [5]; 0.000641 s⁻¹ in experiment [6]. For the same molecule, the dissociation constant (Kd) was 16 nM in the experiment with Bal gp120 [2]; 20 nM in experiment [3]; 22.5 nM in experiment [4]; 22.9 nM in experiment [5]; 39.4 nM in experiment [6].
